Reference: article PMC6717765, “p32 is a negative regulator of p53 tetramerization and transactivation” (Molecular Oncology, 2019)

B1: His-tagged p32 (wild type, recombinant) (natural protein, UniProt Q07021 74-282, looked up)
chain: LHTDGDKAFVDFLSDEIKEERKIQKHKTLPKMSGGWELELNGTEAKLVRKVAGEKITVTFNINNSIPPTFDGEEEPSQGQKVEEQEPELTSTPNFVVEVIKNDDGKKALVLDCHYPEDEVGQEDEAESDIFSIREVSFQSTGESEWKDTNYTLNTDSLDWALYDHLMDFLADRGVDNTFADELVELSTALEHQEYITFLEDLKSFVKSQ
notes: p32 (gC1qR/C1QBP/HABP1); also called His-p32; mature p32

Columns and labels:
Settings in all cases: both partners purified
GST-p53 = biological target: T1, GST-p53 (UniProt P04637 1-393); assay: pull-down; GST or GST-p53 fusions immobilised on glutathione-Sepharose beads, His-tagged p32 in solution; overnight at 4 °C; 20 mM Tris/HCl pH 7.3, 0.2 M KCl, 0.2 mM EDTA, 20% glycerol, 0.01% Nonidet P-40; blot with anti-His
T1 construct: p53; also called GST-fused p53; source: bacterially produced, purified on glutathione-Sepharose 4B beads

[1] = biological target: T2, FLAG-tagged p53 (recombinant) (UniProt P04637 1-393); assay: cross-linking; purified FLAG-p53 with or without p32 (molar ratio 1:1, 1:2, 1:4) overnight at 4 °C; 10 mM Tris/HCl pH 7.5, 50 mM NaCl, 0.1 mM EDTA, 1 mM DTT, 5% glycerol; 0.01% glutaraldehyde 10 min at 22 °C; SDS/PAGE and anti-FLAG blot for monomers, dimers, tetramers
T2 construct: p53; also called FLAG-p53; source: E. coli Rosetta 2 (DE3) pLysS, purified (anti-FLAG M2 agarose)

[2] = biological target: B1; assay: pull-down; GST or GST-p53 fusions immobilised on glutathione-Sepharose beads, His-tagged p32 in solution; overnight at 4 °C; 20 mM Tris/HCl pH 7.3, 0.2 M KCl, 0.2 mM EDTA, 20% glycerol, 0.01% Nonidet P-40; blot with anti-His
[3] = biological target: T2, FLAG-tagged p53 (recombinant); assay: pull-down; GST or GST-p32 fusions immobilised on glutathione-Sepharose beads, FLAG-tagged p53 in solution; overnight at 4 °C; 20 mM Tris/HCl pH 7.3, 0.2 M KCl, 0.2 mM EDTA, 20% glycerol, 0.01% Nonidet P-40; blot with anti-FLAG

T2 sequence (P04637 whole entry): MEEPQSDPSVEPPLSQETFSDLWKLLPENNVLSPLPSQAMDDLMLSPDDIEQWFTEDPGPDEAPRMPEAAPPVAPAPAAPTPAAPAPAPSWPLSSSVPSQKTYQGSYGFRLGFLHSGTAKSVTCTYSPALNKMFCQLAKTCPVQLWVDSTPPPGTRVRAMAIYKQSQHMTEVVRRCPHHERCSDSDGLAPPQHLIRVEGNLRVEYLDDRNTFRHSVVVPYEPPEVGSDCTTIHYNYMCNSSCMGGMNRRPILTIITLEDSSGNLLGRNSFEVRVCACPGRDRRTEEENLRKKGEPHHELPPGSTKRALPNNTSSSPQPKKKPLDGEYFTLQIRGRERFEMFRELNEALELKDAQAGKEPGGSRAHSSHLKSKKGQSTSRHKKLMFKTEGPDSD
T1 sequence (P04637 whole entry, the tested form may be a part): as the sequence (P04637 whole entry) above

Binder	binding result [3]	also measured
B1	–	binding result (GST-p53): binds; binding result [1]: binds
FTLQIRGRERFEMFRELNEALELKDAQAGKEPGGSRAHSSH (domain or fragment, UniProt P04637 328-368, looked up, source: bacterially produced, purified on glutathione-Sepharose 4B beads) [GST-p53 tetramerization domain (residues 328-368)]	–	binding result [2]: binds
WALYDHLMDFLADRGVDNTFADELVELSTALEHQEYITFLEDLKSFVKSQ (domain or fragment, UniProt Q07021 233-282, looked up, source: expressed and purified on glutathione-Sepharose 4B beads) [GST-p32 C-terminal domain (residues 233-282)]	binds	–
WALYDHLMDFLADRGVDN (domain or fragment, UniProt Q07021 233-250, looked up, source: expressed and purified on glutathione-Sepharose 4B beads) [GST-p32 (233-250)]	binds	–
WALYDHLMDFLADRGVAN (domain or fragment, UniProt Q07021 233-250, looked up, also called GST-p32 D249A; source: expressed and purified on glutathione-Sepharose 4B beads) [GST-p32 (233-250) D249A]	binds	–
